biological target: FPRL1 (formyl peptide receptor-like 1) inhibitory protein (FLIPr) (S. aureus) (UniProt Q2FZC0); test: BLI
Sequence (Q2FZC0 25-133): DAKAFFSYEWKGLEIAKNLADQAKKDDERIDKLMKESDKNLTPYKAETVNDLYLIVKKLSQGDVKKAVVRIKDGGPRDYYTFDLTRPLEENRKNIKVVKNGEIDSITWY

Substance	Kd [nM]
complement component 1q subcomponent A (C1QA) (from UniProt P02745 23-245) (natural protein)	3.2
complement component 1q subcomponent B (C1QB) (from UniProt P02746 28-253) (natural protein)	2.1
complement component 1q subcomponent C (C1QC) (from UniProt P02747 29-245) (natural protein)	9.9

— publication PMC4908583
